Test results reported in US11708423B2, “Chimeric engulfment receptor molecules and methods of use” (CERO THERAPEUTICS, INC., priority 2017, dated 2023).

Key:
Type in all cases: cell-based
[1] = test system: HCC159 lung adenocarcinoma cells; test: Interferon Gamma secretion, HCC159 co-culture; settings: Osimeritinib 0, 1, 5 nM; 18 hours
Procedure: HCC159 lung adenocarcinoma cells were co-cultured with CER123- or CER126-expressing CD4+ T cells with increasing concentrations of Osimeritnib (0, 1 nM, 5 nM). After 18 hours of co-culture, bulk supernatants were evaluated using a LDH-based cytotoxicity assay. T cells assays were performed using purified, EGFR^+ (transduction marker), CER modified T cells 7 days after activation using CD3 & CD28 microbeads at effector:target cell ratios of 2:1 or 5:1. Control “Mock” T cells were transduced with vector alone. […] Bulk supernatants were also analyzed after 18 hours of co-culture for Interferon Gamma (IFNγ) secretion (FIG. 50). Control “Mock” T cells were transduced with vector alone.

[2] = test system: staurosporine treated Jurkat cells; test: Phagocytosis and cytolysis of staurosporine treated Jurkat cells by CER21+ human primary B cells
Procedure: One day prior to setting up the phagocytosis assay, Jurkat human B lymphocytes were cultured in complete RPMI 1640 growth media supplemented with 10% fetal bovine serum and 1% penicillin-streptomycin in a 6 well plate and treated with 1 mM staurosporine for three hours to induce apoptosis. Jurkat cells were washed twice in lx PBS to remove excess staurosporine and then stained with pHrodo Red (1 ng/μ.1 in PBS) for 15 minutes at room temperature. The Jurkat cells were supplemented with growth media, washed once to remove excess pHrodo Red, and plated on flat bottom 96 well plates at approximately 250,000 cells/well in RPMI 1640 complete media.
Transduced CER21+ human primary B cells were washed once with 1×PBS and stained with 1 μM CELLTRACE Violet in PBS for 10 minutes at 37° C. The CER21+ human primary B cells were supplemented with growth media, washed once with 1×PBS to remove excess CELLTRACE Violet, and plated onto 96 well plate at approximately 50,000 cells/well in RPMI 1640 complete media. Human CER21+primary B cells and Jurkat cells were co-cultured at a target cell to effector cell ratio of 5:1 at 37° C. for 3 hours. After incubation, the co-culture plate was then centrifuged, and the media replaced with PBS supplemented with 2% fetal bovine serum, pH 9. Phagocytic events were quantified by fluorescent microscopy (KEYENCE BZ-X710 fluorescence microscope, 20X objective). […] Solid arrows show engulfment activity. Dashed arrows show cytolytic activity.
Apoptotic cells were quantified from fluorescent images using automated software, and the number of apoptotic cells per high power view (FIG. 20A) and total fluorescence emission per high power view (FIG. 20B) were calculated using pH indicator dye.

[3] = test system: H1703 non-small cell lung cancer cells; test: Killing of paclitaxel treated H1703 cells by CER21+ human primary B cells; settings: Paclitaxel 30 μM, target:effector 5:1, 3 hours, vs EGFRt B cells
Procedure: Human primary B cells were transduced with pLenti Tim4-TLR8 (CER21) lentivirus expressing truncated EGFR as a transduction marker and stained with CELLTRACE Violet as described in Example 1. One day prior to setting up a co-culture assay, H1703 non-small cell lung cancer cells were incubated with phosphatidylserine inducing chemotherapy Paclitaxel (30 μM) in serum-free media for 24 hours. Floating and adherent H1703 cells were collected, centrifuged, incubated with pHrodo red (1 ng/μL) for 15 minutes at room temperature in PBS, washed, and then plated in a non-adherent 96 well plate. Human CER21+ B cells and H1703 cells were co-cultured at a target cell to effector cell ratio of 5:1 at 37° C. for 3 hours. B cells transduced with truncated EGFR were used as control. The plate was then imaged using a 20X objective, Keyence BZ-X710 microscope (FIG. 21). Cells undergoing apoptosis show increasing Red fluorescence as the intracellular pH drops in the earliest stages of apoptosis (FIG. 21, top row). Adjacent cells not induced by Paclitaxel treatment remain only dimly fluorescent. Apoptotic measurements in the presence of CER21+ B cells were quantified as the Area under the Curve of red fluorescent objects and outlined in blue using automated software (FIG. 21, bottom row; FIG. 22), for each high powered field. White arrows show apoptosis events.

[4] = test system: dexamethasone pre-treated thymocytes; test: Phagocytosis of thymocytes by CER Ba/F3 cells in presence or absence of Racl inhibitor; settings: Ba/F3 cells, 6 hour co-culture
[5] = test system: H1975 NSCLC cells; test: Phagocytosis of Osimeritinib-treated H1975 cells by CER122 T cells; settings: 500 nM osimeritinib, 12 hours, CD4+ T cells
Procedure: H1975 NSCLC cells were treated with 500 nM Osimeritinib and then labeled with pH-rodo red, a pH sensing dye, to indicate localization to low-pH retaining endosomes. CD4+ T cells were transduced with a lentiviral vector comprising a CER122 nucleic acid and tEGFR nucleic acid (transduction marker). CER122 has a polypeptide sequence as set forth in SEQ ID NO:149 and comprises a Tim4 binding domain, Tim4 transmembrane domain, and an engulfment signaling domain comprising a primary engulfment signaling domain comprising a TLR2 signaling domain and a secondary engulfment signaling domain comprising a DAP12 signaling domain. CER122-transduced T cells labeled with CELLTRACE Violet were co-cultured with Osimeritinib-treated H1975 NSCLC cells. Fluorescent microscopy images (40X) were obtained 12 hours after co-culture of H1975 cells and CER-expressing T cells (FIG. 47, top left panel). […] Phagocytic events can be visualized as pHrodo red targets within CELLTRACE Violet labeled T cells. An enlargement of phagocytosis of pHrodo red labeled H1975 cells by CELLTRACE Violet labeled CER122-modified T cells is shown in the bottom panel of FIG. 47, with white arrows indicating phagocytic events.

[6] = human primary B cells, target:effector 5:1, 3 hours

B1: CER123: Tim4 binding and transmembrane domains, TLR2 primary and TRAF6 secondary signaling domains; SEQ ID NO:150 (protein)
chain: MSKGLLLLWLVTELWWLYLTPAASEDTIIGFLGQPVTLPCHYLSWSQSRNSMCWGKGSCPNSKCNAELLRTDGTRIISRKSTKYTLLGKVQFGEVSLTISNTNRGDSGVYCCRIEVPGWFNDVKKNVRLELRRATTTKKPTTTTRPTTTPYVTTTTPELLPTTVMTTSVLPTTTPPQTLATTAFSTAVTTCPSTTPGSFSQETTKGSAFTTESETLPASNHSQRSMMTISTDIAVLRPTGSNPGILPSTSQLTTQKTTLTTSESLQKTTKSHQINSRQTILIIACCVGFVLMVLLFLAFLHRFHGLWYMKMMWAWLQAKRKPRKAPSRNICYDAFVSYSERDAYWVENLMVQELENFNPPFKLCLHKRDFIPGKWIIDNIIDSIEKSHKTVFVLSENFVKSEWCKYELDFSHFRLFDENNDAAILILLEPIEKKAIPQRFCKLRKIMNTKTYLEWPMDEAQREGFWVNLRAAIKSMSLLNCENSCGSSQSESDCCVAMASSCSAVTKDDSVGGTASTGNLSSSFMEEIQGYDVEFDPPLESKYECPICLMALREAVQTPCGHRFCKACIIKSIRDAGHKCPVDNEILLENQLFPDNFAKREILSLMVKCPNEGCLHKMELRHLEDHQAHCEFALMDCPQCQRPFQKFHINIHILKDCPRRQVSCDNCAASMAFEDKEIHDQNCPLANVICEYCNTILIREQMPNHYDLDCPTAPIPCTFSTFGCHEKMQRNHLARHLQENTQSHMRMLA
modifications: CER123 protein
[1]
  Interferon Gamma (IFNγ) secretion: inducible cytokine secretion

B2: CER21: Tim4 binding and transmembrane domains, TLR8 signaling domain; SEQ ID NO:88 (protein)
chain: MSKGLLLLWLVTELWWLYLTPAASEDTIIGFLGQPVTLPCHYLSWSQSRNSMCWGKGSCPNSKCNAELLRTDGTRIISRKSTKYTLLGKVQFGEVSLTISNTNRGDSGVYCCRIEVPGWFNDVKKNVRLELRRATTTKKPTTTTRPTTTPYVTTTTPELLPTTVMTTSVLPTTTPPQTLATTAFSTAVTTCPSTTPGSFSQETTKGSAFTTESETLPASNHSQRSMMTISTDIAVLRPTGSNPGILPSTSQLTTQKTTLTTSESLQKTTKSHQINSRQTILIIACCVGFVLMVLLFLAFLHHLFYWDVWFIYNVCLAKVKGYRSLSTSQTFYDAYISYDTKDASVTDWVINELRYHLEESRDKNVLLCLEERDWDPGLAIIDNLMQSINQSKKTVFVLTKKYAKSWNFKTAFYLALQRLMDENMDVIIFILLEPVLQHSQYLRLRQRICKSSILQWPDNPKAEGLFWQTLRNVVLTENDSRYNNMYVDSIKQY
modifications: CER21 chimeric engulfment receptor
[2]; [6]
  in vitro cytolysis of engulfed Jurkat cells: in vitro cytolysis of Jurkat cells
  in vitro phagocytosis of Jurkat cells: in vitro phagocytosis
[2]; staurosporine treated (subtherapeutic dose) Jurkat cells
  killing of target cells (apoptotic cells and fluorescence per high power view): enhanced killing of target cells
[3]
  killing of paclitaxel treated H1703 cells (apoptotic object area): enhance killing of target cells at sub-therapeutic dose of chemotherapy
[4]
  pHrodo+ signal (phagocytosis of thymocytes), FACS: considerable pHrodo+ signal indicating phagocytosis of target thymocytes

B3: CER122: Tim4 binding and transmembrane domains, TLR2 primary and DAP12 secondary signaling domains; SEQ ID NO:149 (protein)
chain: MSKGLLLLWLVTELWWLYLTPAASEDTIIGFLGQPVTLPCHYLSWSQSRNSMCWGKGSCPNSKCNAELLRTDGTRIISRKSTKYTLLGKVQFGEVSLTISNTNRGDSGVYCCRIEVPGWFNDVKKNVRLELRRATTTKKPTTTTRPTTTPYVTTTTPELLPTTVMTTSVLPTTTPPQTLATTAFSTAVTTCPSTTPGSFSQETTKGSAFTTESETLPASNHSQRSMMTISTDIAVLRPTGSNPGILPSTSQLTTQKTTLTTSESLQKTTKSHQINSRQTILIIACCVGFVLMVLLFLAFLHRFHGLWYMKMMWAWLQAKRKPRKAPSRNICYDAFVSYSERDAYWVENLMVQELENFNPPFKLCLHKRDFIPGKWIIDNIIDSIEKSHKTVFVLSENFVKSEWCKYELDFSHFRLFDENNDAAILILLEPIEKKAIPQRFCKLRKIMNTKTYLEWPMDEAQREGFWVNLRAAIKSYFLGRLVPRGRGAAEAATRKQRITETESPYQELQGQRSDVYSDLNTQRPYYK
modifications: CER122 protein
[5]
  phagocytosis of H1975 cells: phagocytic elimination of EGFR-mutated NSCLC cells
